In US20140178373A1 (TORAY INDUSTRIES, published 2014):
Where a chain is given by its changes, count along the chain named.

T1: CAPRIN-1 protein on the cell membrane surface of human cancer cell lines (human, UniProt Q14444 2-709)
T1 sequence (looked up): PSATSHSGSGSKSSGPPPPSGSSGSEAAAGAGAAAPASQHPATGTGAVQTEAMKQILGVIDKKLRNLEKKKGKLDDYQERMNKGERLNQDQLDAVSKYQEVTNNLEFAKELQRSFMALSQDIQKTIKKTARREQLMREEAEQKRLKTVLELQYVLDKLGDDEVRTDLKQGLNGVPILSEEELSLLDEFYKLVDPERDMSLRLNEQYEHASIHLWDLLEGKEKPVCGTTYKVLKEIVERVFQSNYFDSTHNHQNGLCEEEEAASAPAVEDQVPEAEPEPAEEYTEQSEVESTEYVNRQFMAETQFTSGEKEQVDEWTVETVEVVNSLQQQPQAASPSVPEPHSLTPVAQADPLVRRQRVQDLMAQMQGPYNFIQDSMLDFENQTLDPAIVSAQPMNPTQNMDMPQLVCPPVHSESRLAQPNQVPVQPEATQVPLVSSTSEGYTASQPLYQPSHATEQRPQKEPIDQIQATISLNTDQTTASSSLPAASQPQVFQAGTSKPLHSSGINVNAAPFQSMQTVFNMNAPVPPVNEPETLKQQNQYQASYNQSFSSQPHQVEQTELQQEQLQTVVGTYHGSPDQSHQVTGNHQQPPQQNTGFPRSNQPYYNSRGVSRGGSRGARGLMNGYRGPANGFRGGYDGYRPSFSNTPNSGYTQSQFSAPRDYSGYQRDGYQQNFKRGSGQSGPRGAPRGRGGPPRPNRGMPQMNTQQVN

B1: human-mouse chimeric comparative antibody 1 (antibody)
heavy: not shown
light: DIQMTQSPASLSASVGETVTITCRASGNIHNYLAWYQQKQGKSPQLLVYNAKTLADGVPSRFSGSGSGTQYSLKINSLQPEDFGSYYCQHFWSTLTFGAGTKLELKRTVAAPSVFIFPPSDEQLKSGTASVVCLLNNFYPREAKVQWKVDNALQSGNSQESVTEQDSKDSTYSLSSTLTLSKADYEKHKVYACEVTHQGLSSPVTKSFNRGEC
B2: human-mouse chimeric comparative antibody 3 (antibody)
heavy: not shown
light: B1 light with M4L, A99G, L105I, R107Q
B3: human-mouse chimeric comparative antibody 7 (antibody, human IgG1, kappa, V domains shown)
VH: LQESGAELARPGASVKLSCKASGYTFTSYWMQWVKQRPGQGLEWIGAIYPGDGDTRYTQKFKGKATLTADKSSSTAYMQLSSLASEDSAVYYCARGEYGNYFAYWGQGTTVTVSS
VL: TSDASLGERVTITCKASQDINSYLSWFQQKPGKSPKTLIYRANRLVDGVPSRFSGSGSGQDYSLTISSLEYEDMGIYYCLQYDEFPLTFGGGTKLEIKQ
B4: human-mouse chimeric comparative antibody 4 (antibody, human IgG1, kappa, V domains shown)
VH: EVQLHQFGAELVKPGASVKISCKASGYTFTDYNMDWVKQSHGKSLEWIGDINPNYDSTSYNQKFKGKATLTVDKSSSTAYMELRSLTSEDTAVYYCARSRSYDYEGFAYWGQGTLVTVSA
VL: SGDRVSLSCRASQSISNYLHWYQQKSHESPRLLIKYASQSISGIPSRFSGSGSGTDFTLSINSVETEDFGMYFCQQSNSWPYTFGAGTKLEIKQ

Target: T1, CAPRIN-1 protein on the cell membrane …
Test: cell-based or functional assay

| Binder | cytotoxic activity (ADCC) against MCF7, HCT-116, MIAPaCa-2, Caki-2 and QG56 | cytotoxic activity (ADCC) against all other cancer cells (19 further cell lines) |
| --- | --- | --- |
| B1 | < 5% | < 4% |
| B2 | < 5% | < 4% |
| B3 | < 5% | < 4% |
| B4 | < 5% | < 4% |
